Assay results from paper PMC12307460.
Several values for one entry are separate records, joined by “and”; a condition that tells them apart may be missing. Equal values may be shown once.

Tests used:
[1] = biological target: spike (S) protein of bat merbecovirus BtCoV/Ii/GD/2014-422 (BtCoV/Ii/GD/2014-422 (bat MERSr-CoV))
[2] = biological target: MERS-CoV spike (S) protein of strain MERS-CoV/KOR/KNIH/002_05_2015 (clade B) (MERS-CoV strain MERS-CoV/KOR/KNIH/002_05_2015 (clade B))
[3] = biological target: spike (S) protein of pangolin merbecovirus MjHKU4r-CoV (MjHKU4r-CoV (pangolin HKU4r-CoV))
[4] = biological target: MERS-CoV spike (S) protein of strain NRCE-HKU270 (clade C) (MERS-CoV strain NRCE-HKU270 (clade C))
[5] = biological target: MERS-CoV spike (S) protein of strain HCoV-EMC/2012 (clade A) (MERS-CoV strain HCoV-EMC/2012 (clade A)) (UniProt K9N5Q8)
UniProt K9N5Q8, sequence (K9N5Q8 18-1353): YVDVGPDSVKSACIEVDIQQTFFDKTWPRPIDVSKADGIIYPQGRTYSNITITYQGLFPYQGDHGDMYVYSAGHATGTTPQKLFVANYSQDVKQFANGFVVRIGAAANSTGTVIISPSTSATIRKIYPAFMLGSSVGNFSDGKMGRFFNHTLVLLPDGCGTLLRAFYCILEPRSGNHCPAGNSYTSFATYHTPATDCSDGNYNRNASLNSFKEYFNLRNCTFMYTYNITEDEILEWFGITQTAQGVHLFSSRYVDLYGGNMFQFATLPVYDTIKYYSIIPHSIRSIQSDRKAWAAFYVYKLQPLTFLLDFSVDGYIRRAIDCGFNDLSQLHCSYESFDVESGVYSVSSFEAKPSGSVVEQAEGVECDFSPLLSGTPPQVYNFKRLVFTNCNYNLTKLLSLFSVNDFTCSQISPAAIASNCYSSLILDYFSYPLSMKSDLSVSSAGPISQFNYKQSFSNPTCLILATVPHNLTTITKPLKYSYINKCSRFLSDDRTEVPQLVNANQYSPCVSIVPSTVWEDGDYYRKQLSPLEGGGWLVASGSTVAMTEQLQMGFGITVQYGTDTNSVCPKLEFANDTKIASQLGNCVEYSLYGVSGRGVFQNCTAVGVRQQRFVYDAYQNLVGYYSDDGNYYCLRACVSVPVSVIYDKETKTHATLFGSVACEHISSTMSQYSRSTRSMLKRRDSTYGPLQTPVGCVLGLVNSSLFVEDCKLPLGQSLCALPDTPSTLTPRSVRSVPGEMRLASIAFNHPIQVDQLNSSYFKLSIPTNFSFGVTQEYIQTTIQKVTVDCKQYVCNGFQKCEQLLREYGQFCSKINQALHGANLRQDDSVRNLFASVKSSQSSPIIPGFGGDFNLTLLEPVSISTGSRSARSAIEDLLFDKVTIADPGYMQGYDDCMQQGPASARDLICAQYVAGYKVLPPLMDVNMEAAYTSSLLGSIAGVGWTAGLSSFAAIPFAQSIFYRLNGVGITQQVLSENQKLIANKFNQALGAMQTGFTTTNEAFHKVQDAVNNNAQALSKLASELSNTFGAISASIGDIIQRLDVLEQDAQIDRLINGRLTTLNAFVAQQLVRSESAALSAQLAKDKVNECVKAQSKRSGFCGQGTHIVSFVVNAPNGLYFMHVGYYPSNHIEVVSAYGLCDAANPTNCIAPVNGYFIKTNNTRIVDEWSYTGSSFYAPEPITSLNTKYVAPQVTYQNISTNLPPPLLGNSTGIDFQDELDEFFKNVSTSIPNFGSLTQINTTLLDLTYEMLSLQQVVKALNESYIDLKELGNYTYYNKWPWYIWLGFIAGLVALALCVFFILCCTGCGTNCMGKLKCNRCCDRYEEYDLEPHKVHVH

Substance | IC50 of neutralisation of S pseudovirus, average [1] | IC50 of neutralisation of S pseudovirus, one of three assays [1] | IC50 of neutralisation of S pseudovirus, average [2] | IC50 of neutralisation of S pseudovirus, one of three assays [2] | IC50 of neutralisation of S pseudovirus, average [3] | IC50 of neutralisation of S pseudovirus, one of three assays [3] | IC50 of neutralisation of S pseudovirus, average [4] | IC50 of neutralisation of S pseudovirus, one of three assays [4] | IC50 of neutralisation of S pseudovirus, average [5] | IC50 of neutralisation of S pseudovirus, one of three assays [5]
JC57-14 (antibody) | > 5 µg/mL | > 5 µg/mL | 0.064 µg/mL | 0.09 µg/mL and 0.043 µg/mL and 0.06 µg/mL | > 5 µg/mL | > 5 µg/mL | 0.055 µg/mL | 0.066 µg/mL and 0.059 µg/mL and 0.039 µg/mL | 0.037 µg/mL | 0.039 µg/mL and 0.023 µg/mL and 0.047 µg/mL
7D10 (antibody) | 23 µg/mL | – | 7.5 µg/mL | – | > 50 µg/mL | > 50 µg/mL | > 50 µg/mL | > 50 µg/mL | 50 µg/mL | 50 µg/mL
G4 (antibody) | 11 µg/mL | – | 7.7 µg/mL | – | > 25 µg/mL | > 25 µg/mL | 9.3 µg/mL | 5.2 µg/mL and 8.7 µg/mL and 14 µg/mL | 8.1 µg/mL | 5.9 µg/mL and 6.4 µg/mL and 12 µg/mL
CDC2-C2 (antibody) | > 5 µg/mL | > 5 µg/mL | 0.17 µg/mL | – | > 5 µg/mL | > 5 µg/mL | 0.12 µg/mL | – | 0.041 µg/mL | –
MCA1 (antibody) | > 5 µg/mL | > 5 µg/mL | 0.096 µg/mL | 0.082 µg/mL and 0.06 µg/mL and 0.15 µg/mL | > 5 µg/mL | > 5 µg/mL | 0.067 µg/mL | 0.084 µg/mL and 0.047 µg/mL and 0.071 µg/mL | 0.059 µg/mL | –
D12 (antibody) | > 5 µg/mL | > 5 µg/mL | 0.19 µg/mL | 0.25 µg/mL and 0.18 µg/mL and 0.14 µg/mL | > 5 µg/mL | > 5 µg/mL | 0.085 µg/mL | 0.095 µg/mL and 0.098 µg/mL and 0.061 µg/mL | 0.068 µg/mL | 0.087 µg/mL and 0.077 µg/mL and 0.041 µg/mL
m336 (antibody) | > 5 µg/mL | > 5 µg/mL | 0.85 µg/mL | – | > 5 µg/mL | > 5 µg/mL | 0.36 µg/mL | – | 0.14 µg/mL | –
